Among the data in article PMC3936483 are stoichiometry N values, retold here.

Test [1] concerns the target serum CTRP2 (mouse (endogenous in C57BL/6 serum)) (UniProt Q9D8U4). The test can be described thus: SEC.
Test [2] concerns the target CTRP2 (C1q/TNF-related protein 2), C-terminal FLAG- or HA-tagged, full length (mouse) (UniProt Q9D8U4). The test can be described thus: SEC.

Chain of serum CTRP2 (Q9D8U4 25-294): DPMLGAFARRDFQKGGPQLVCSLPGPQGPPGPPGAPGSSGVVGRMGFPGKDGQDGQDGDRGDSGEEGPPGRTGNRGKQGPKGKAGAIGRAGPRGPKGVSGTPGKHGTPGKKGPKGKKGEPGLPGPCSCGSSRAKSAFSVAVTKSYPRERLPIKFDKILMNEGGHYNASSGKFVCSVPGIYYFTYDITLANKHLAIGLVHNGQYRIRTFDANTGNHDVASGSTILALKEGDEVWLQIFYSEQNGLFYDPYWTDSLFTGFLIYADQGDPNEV
Chain of CTRP2 (C1q/TNF-related protein 2), C-terminal FLAG- or HA-tagged, full length (Q9D8U4 25-294): as above

With “serum CTRP2 (from UniProt Q9D8U4 25-294) (natural protein)”, the stoichiometry N in test [1] was determined as 3.

For “CTRP2 (C1q/TNF-related protein 2), C-terminal FLAG- or HA-tagged, full length (from UniProt Q9D8U4 25-294) (natural protein)”, the stoichiometry N in test [2] was 3.
